Experimental data taken from US20190032033A1 (HEPTARES THERAPEUTICS, published 2019).
Positions count from the first letter of the chain named. Read-outs that look alike come from different tables or passages of the source.

How the values were obtained:
[1] = target: T1, thioredoxin-A2AR fusion protein (human, UniProt P29274 6-316); assay: analytical SEC of purified NECA-bound A2AR mixed with mini-Gs/q (1:1.2 molar ratio) and Coomassie-stained SDS-PAGE of fractions 10-20
T1 construct: range 6-316; gp67 leader is cleavable; not shown: His10 tag, TEV protease cleavage site and thioredoxin

[2] = target: T2, C-terminally truncated human A2AR (residues 1-317, N154A) (human, UniProt P29274 1-317); assay: cell-based or functional assay
[3] = target: rat neurotensin receptor NTSR1 (residues 43-396) (rat, UniProt P20789 43-396); assay: cell-based or functional assay
[4] = target: T2, C-terminally truncated human A2AR …; assay: thermostability assay, DM-solubilised NECA-bound A2AR
[5] = target: T3, human adenosine A2A receptor (residues 1-308, N154A) (human, UniProt P29274 1-308); assay: cell-based or functional assay
[6] = target: T3, human adenosine A2A receptor (residues …); assay: cell-based or functional assay; remark: listed apart in the source
[7] = target: T1, thioredoxin-A2AR fusion protein; assay: analytical SEC of purified NECA-bound A2AR mixed with mini-Gs/q (1:1.2 molar ratio) and Coomassie-stained SDS-PAGE of fractions 10-20; remark: listed apart in the source
[8] = target: T4, human angiotensin II type 1 receptor AT1R (residues 1-359) (human, UniProt P30556 1-359); assay: cell-based or functional assay
T4 sequence (looked up): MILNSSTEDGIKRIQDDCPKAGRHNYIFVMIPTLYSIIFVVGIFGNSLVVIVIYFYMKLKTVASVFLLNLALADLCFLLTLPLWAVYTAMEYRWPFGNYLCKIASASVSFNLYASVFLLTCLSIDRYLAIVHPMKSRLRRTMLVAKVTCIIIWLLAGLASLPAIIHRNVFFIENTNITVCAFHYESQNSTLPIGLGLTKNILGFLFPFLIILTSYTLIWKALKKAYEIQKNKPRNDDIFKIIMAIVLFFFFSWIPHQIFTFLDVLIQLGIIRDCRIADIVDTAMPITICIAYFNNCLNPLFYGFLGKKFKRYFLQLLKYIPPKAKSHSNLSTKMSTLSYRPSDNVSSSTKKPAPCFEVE

[9] = target: β1AR-WT (wild type-like turkey β1 adrenergic receptor construct) (turkey, UniProt P07700 33-423, limits assumed); assay: cell-based or functional assay
β1AR-WT (wild type-like turkey β1 adrenergic receptor construct), sequence (P07700 other isoform, or with tags, fused parts or gaps limits assumed): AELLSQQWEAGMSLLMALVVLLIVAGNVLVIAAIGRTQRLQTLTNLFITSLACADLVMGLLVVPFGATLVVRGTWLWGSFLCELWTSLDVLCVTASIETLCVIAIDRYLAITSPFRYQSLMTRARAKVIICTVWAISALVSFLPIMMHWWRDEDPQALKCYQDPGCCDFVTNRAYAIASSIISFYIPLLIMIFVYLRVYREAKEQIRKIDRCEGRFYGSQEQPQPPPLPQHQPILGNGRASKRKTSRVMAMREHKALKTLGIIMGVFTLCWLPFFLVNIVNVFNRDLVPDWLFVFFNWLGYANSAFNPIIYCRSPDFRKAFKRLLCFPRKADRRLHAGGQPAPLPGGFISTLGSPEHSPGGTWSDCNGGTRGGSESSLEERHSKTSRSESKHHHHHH

T2 sequence (P29274 1-317 N154A): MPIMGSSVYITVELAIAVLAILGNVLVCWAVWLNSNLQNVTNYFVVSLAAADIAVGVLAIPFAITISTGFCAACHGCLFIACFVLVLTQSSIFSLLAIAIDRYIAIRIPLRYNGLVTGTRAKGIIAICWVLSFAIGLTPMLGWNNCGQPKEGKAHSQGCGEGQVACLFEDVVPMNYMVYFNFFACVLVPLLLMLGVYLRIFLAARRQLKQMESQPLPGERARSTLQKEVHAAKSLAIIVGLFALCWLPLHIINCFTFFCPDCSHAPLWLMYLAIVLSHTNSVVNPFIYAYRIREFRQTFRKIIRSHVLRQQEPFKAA
T3 sequence (P29274 1-308 N154A): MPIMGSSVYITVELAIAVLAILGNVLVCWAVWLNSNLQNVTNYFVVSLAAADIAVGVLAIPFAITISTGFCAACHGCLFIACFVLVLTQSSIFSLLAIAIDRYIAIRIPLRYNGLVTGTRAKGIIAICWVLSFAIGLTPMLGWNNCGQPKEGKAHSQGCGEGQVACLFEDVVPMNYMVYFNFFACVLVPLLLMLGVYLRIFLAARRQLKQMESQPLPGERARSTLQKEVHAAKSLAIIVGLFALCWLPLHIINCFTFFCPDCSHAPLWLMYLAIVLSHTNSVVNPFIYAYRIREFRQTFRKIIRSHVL
T1 sequence (P29274 other isoform, or with tags, fused parts or gaps): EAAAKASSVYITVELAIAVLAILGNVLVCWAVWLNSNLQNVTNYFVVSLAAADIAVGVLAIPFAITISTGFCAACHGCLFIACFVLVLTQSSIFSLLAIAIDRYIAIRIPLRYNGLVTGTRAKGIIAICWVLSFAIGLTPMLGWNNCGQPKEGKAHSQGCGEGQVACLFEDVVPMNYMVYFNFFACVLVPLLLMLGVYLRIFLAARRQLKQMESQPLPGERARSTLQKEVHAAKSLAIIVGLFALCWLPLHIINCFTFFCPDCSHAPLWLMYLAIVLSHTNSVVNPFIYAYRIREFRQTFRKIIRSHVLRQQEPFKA
rat neurotensin receptor NTSR1 (residues 43-396), sequence (P20789 43-396 limits assumed): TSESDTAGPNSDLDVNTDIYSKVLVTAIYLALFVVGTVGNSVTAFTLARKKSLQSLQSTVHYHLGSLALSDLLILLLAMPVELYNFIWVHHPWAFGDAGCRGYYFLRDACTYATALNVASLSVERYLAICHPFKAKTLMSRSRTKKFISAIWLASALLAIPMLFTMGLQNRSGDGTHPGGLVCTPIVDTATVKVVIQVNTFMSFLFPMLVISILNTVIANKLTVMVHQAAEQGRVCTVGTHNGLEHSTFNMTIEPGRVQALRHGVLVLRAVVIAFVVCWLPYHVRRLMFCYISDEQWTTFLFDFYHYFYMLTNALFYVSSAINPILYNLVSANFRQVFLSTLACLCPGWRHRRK

B1: mini-Gs/q58 (other)
chain: MGHHHHHHENLYFQGIEKQLQKDKQVYRATHRLLLLGADNSGKSTIVKQMRILHGGSGGSGGTSGIFETKFQVDKVNFHMFDVGGQRDERRKWIQCFNDVTAIIFVVDSSDYNRLQEALNDFKSIWNNRWLRTISVILFLNKQDLLAEKVLAGKSKIEDYFPEFARYTTPEDATPEPGEDPRVTRAKYFIRDEFLRISTASGDGRHYCYPHFTCAVDTENARRIFAAVKDTILQLNLKEYNLV
[1]
  binding result: no binding
[2]
  apparent Tm of DM-solubilised 3H-NECA-bound A2AR (alone 26.9 °C): 26.9 °C
[3]
  apparent Tm of DDM-solubilised 3H-NTS-bound NTSR1 (alone 24.9 °C): 25.1 °C
[4]
  binding result: no binding (tested: 25 µM)

B2: Mini-Gs414 (other)
chain: GIEKQLQKDKQVYRATHRLLLLGADNSGKSTIVKQMRIYHGGSGGSGGTSGIFETKFQVDKVNFHMFDVGGQRDERRKWIQCFNDVTAIIFVVDSSDYNRLQEALNDFKSIWNNRWLRTISVILFLNKQDLLAEKVLAGKSKIEDYFPEFARYTTPEDATPEPGEDPRVTRAKYFIRDEFLRISTASGDGRHYCYPHFTCAVDTENARRIFNDCRDIIQRMHLRQYELL
[5]
  apparent Tm of DM-solubilised NECA-bound A2AR: 32.9 °C
[6]
  ΔTm of 3H-NECA-bound A2AR with mini-Gs414 against A2AR only, in decylmaltoside (DM): 6.8 °C
  ΔTm of 3H-NECA-bound A2AR with mini-Gs414 against A2AR only, in dodecylmaltoside (DDM): 7.2 °C
  ΔTm of 3H-NECA-bound A2AR with mini-Gs414 against A2AR only, in octylglucoside (OG): 13.4 °C

B3: mini-Gs/q70 (other)
chain: B2 chain with Y39L, R215K, Q219L, R220Q, H222N, Q225E, E227N, L229V
notes: also called mini-Gs/q chimera; Gs/q construct 70
[7]
  binding result: no binding
[2]
  apparent Tm of DM-solubilised 3H-NECA-bound A2AR (alone 26.9 °C): 27.5 °C
[3]
  apparent Tm of DDM-solubilised 3H-NTS-bound NTSR1 (alone 24.9 °C): 32.5 °C
[8]
  apparent Tm of digitonin-solubilised 125I-AngII-bound AT1R (alone 22.6 °C): 30.7 °C
[4]
  binding result: no binding (tested: 25 µM)

B4: Mini Gs393 (other)
chain: B2 chain with Y39L
[9]
  apparent Tm of β1AR-WT complex in decylmaltoside (receptor alone 20.4 °C): 30.5 °C
  apparent Tm of β1AR-WT complex in dodecylmaltoside (receptor alone 25.9 °C): 34.1 °C
  apparent Tm of β1AR-WT complex in nonylglucoside (uncoupled receptor did not survive): 24.7 °C
  apparent Tm of β1AR-WT complex in octylglucoside (uncoupled receptor did not survive): 19.7 °C
